Biological target: scFv(FRP5)-deltaETA-deltaGAL4 (synthetic construct (Saccharomyces …))
Experiment: EMSA; […] (printed ml); 50 mM Hepes pH 7.5, 50 mM KCl, 5 mM MgCl2, […], room temperature; […] (11.3)
Conditions: tags: N-terminal FLAG and His6, C-terminal KDEL signal; chain copies: 2 (stated; dimer per site, two dimers on tandem site); label: 5'-32P

B1: G4 oligonucleotide (two GAL4 motifs) (dsDNA)
DNA 1: AGCTTGGATCCGGAGGACAGTCCTCCGGAGACCGGAGGACAGTCCTCC
DNA 2: GATCGGAGGACTGTCCTCCGGTCTCCGGAGGACTGTCCTCCGGATCCA
B1: binds.
